Measurements published in IntAct's records for PubMed 7973632.

B1: Receptor-like protein kinase 5 (Arabidopsis thaliana (Mouse-ear cress)), P47735 (parent)
chain: MLYCLILLLCLSSTYLPSLSLNQDATILRQAKLGLSDPAQSLSSWSDNNDVTPCKWLGVSCDATSNVVSVDLSSFMLVGPFPSILCHLPSLHSLSLYNNSINGSLSADDFDTCHNLISLDLSENLLVGSIPKSLPFNLPNLKFLEISGNNLSDTIPSSFGEFRKLESLNLAGNFLSGTIPASLGNVTTLKELKLAYNLFSPSQIPSQLGNLTELQVLWLAGCNLVGPIPPSLSRLTSLVNLDLTFNQLTGSIPSWITQLKTVEQIELFNNSFSGELPESMGNMTTLKRFDASMNKLTGKIPDNLNLLNLESLNLFENMLEGPLPESITRSKTLSELKLFNNRLTGVLPSQLGANSPLQYVDLSYNRFSGEIPANVCGEGKLEYLILIDNSFSGEISNNLGKCKSLTRVRLSNNKLSGQIPHGFWGLPRLSLLELSDNSFTGSIPKTIIGAKNLSNLRISKNRFSGSIPNEIGSLNGIIEISGAENDFSGEIPESLVKLKQLSRLDLSKNQLSGEIPRELRGWKNLNELNLANNHLSGEIPKEVGILPVLNYLDLSSNQFSGEIPLELQNLKLNVLNLSYNHLSGKIPPLYANKIYAHDFIGNPGLCVDLDGLCRKITRSKNIGYVWILLTIFLLAGLVFVVGIVMFIAKCRKLRALKSSTLAASKWRSFHKLHFSEHEIADCLDEKNVIGFGSSGKVYKVELRGGEVVAVKKLNKSVKGGDDEYSSDSLNRDVFAAEVETLGTIRHKSIVRLWCCCSSGDCKLLVYEYMPNGSLADVLHGDRKGGVVLGWPERLRIALDAAEGLSYLHHDCVPPIVHRDVKSSNILLDSDYGAKVADFGIAKVGQMSGSKTPEAMSGIAGSCGYIAPEYVYTLRVNEKSDIYSFGVVLLELVTGKQPTDSELGDKDMAKWVCTALDKCGLEPVIDPKLDLKFKEEISKVIHIGLLCTSPLPLNRPSMRKVVIMLQEVSGAVPCSSPNTSKRSKTGGKLSPYYTEDLNSV
partner: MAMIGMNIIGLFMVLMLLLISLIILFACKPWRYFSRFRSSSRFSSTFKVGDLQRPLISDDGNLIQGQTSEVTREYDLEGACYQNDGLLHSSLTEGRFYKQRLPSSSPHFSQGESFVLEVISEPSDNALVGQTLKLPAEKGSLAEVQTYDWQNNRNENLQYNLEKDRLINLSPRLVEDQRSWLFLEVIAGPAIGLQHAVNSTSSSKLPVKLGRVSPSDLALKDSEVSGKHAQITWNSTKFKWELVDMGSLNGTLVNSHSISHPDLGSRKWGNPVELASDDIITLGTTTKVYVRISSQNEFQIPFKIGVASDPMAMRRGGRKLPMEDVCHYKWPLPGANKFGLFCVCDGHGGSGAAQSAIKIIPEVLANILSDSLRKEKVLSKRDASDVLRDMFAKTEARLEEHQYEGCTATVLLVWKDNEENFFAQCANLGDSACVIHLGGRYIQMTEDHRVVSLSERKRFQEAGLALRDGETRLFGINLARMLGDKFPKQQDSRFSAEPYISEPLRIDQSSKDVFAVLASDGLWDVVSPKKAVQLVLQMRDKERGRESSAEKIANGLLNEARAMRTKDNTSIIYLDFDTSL

Variants of: B1
Details: with KAPP

Row | Variant | effect of a mutation on the interaction
1 | K711E | disrupting interaction
